According to patent publication US20170240604A1 (Harvard, published 2017):
Values belong to the binder of their own block, whether it stands above or below them. No end group written: not given here. fluorescein maleimide = fluorescein maleimide (label on cysteine)

Tests used:
[1] = target: K-Ras (mutation and nucleotide state not stated where it is used) (UniProt P01116); assay: fluorescence polarization
[2] = target: KRas (G12V)·GppNHp (human) (UniProt P01116); assay: fluorescence polarization; FITC-labeled peptide at fixed concentration, KRas(G12V) GppNHp titrated 0.5 to 5000 nM; one-site fit with Hill coefficient
[3] = target: NRas·GppNHp (UniProt P01111); assay: fluorescence polarization, FITC-225-3 with GppNHp-bound NRas
[4] = target: HRas·GppNHp (UniProt P01112 1-177, limits assumed); assay: fluorescence polarization, FITC-225-3 with GppNHp-bound HRas
[5] = target: T1, Rap1a (GppNHp-bound) (UniProt P62834 1-167, limits assumed); assay: fluorescence polarization, FITC-225-3 with GppNHp-bound Rap1a; FP, GppNHp-bound Rap1a
T1 construct: also called Rapla (so in the source)
T1 sequence: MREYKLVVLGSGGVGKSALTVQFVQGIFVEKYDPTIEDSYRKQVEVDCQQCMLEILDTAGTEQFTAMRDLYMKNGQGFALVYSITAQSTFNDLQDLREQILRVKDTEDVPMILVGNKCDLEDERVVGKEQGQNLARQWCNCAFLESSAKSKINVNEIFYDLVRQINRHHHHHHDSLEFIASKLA

[6] = target: T2, Rab25 (GppNHp-bound) (UniProt P57735 1-213, limits assumed); assay: fluorescence polarization, FITC-225-3 with GppNHp-bound Rab25; FP, GppNHp-bound Rab25; weak binding given as a number
T2 sequence (looked up): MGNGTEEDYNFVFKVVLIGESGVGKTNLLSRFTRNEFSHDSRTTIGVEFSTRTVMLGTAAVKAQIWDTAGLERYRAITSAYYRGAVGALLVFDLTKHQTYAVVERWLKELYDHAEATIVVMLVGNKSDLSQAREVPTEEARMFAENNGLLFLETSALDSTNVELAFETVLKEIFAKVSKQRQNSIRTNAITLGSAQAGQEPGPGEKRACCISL

[7] = target: T3, RalA (UniProt P11233 1-178, limits assumed); assay: fluorescence polarization; FITC-labeled 225-3 at fixed concentration, protein titrated; one-site specific binding fit with Hill coefficient
T3 construct: also called RalA protein
T3 sequence: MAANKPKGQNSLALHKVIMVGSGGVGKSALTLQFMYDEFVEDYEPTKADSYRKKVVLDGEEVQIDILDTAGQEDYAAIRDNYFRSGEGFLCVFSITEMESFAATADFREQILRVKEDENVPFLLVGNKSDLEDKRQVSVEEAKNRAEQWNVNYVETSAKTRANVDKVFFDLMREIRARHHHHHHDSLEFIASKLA

[8] = target: T2, Rab25 (GppNHp-bound); assay: as above

Kd [1]: 6 nM
B1: RDA3 (peptide)
peptide: GRRPRRPRCPGDDASIEDLHEYWARLWNYLYAVA
modifications: also: FITC label, site not given here

Kd [2]: 84 nM
B2: 225-3 R3A (peptide)
peptide monomer: GC(fluorescein maleimide)GGPRRPARPRYPGDDASIEDLHEYWARLWNYLYAVA

Kd [2]: 170 nM
B3: 225-3 H18A (peptide)
peptide monomer: GC(fluorescein maleimide)GGPRRPRRPRYPGDDASIEDLAEYWARLWNYLYAVA

Kd [2]: 550 nM
B4: 225-3 D11A (peptide)
peptide monomer: GC(fluorescein maleimide)GGPRRPRRPRYPGDAASIEDLHEYWARLWNYLYAVA

Kd [2]: 340 nM
B5: 225-3 R6A (peptide)
peptide monomer: GC(fluorescein maleimide)GGPRRPRRPAYPGDDASIEDLHEYWARLWNYLYAVA

Kd [2]: 200 nM
B6: 225-3 Y29A (peptide)
peptide monomer: GC(fluorescein maleimide)GGPRRPRRPRYPGDDASIEDLHEYWARLWNYLAAVA

Kd [3]: 45 nM
Kd [4]: 45 nM
Kd [5]: 3.5 µM
Kd [6]: ~10 µM
Kd [7]: > 5 µM
Kd [8]: > 5 µM
B7: 225-3 (peptide)
peptide: GCGGPRRPRRPRYPGDDASIEDLHEYWARLWNYLYAVA
modifications: also: Cys2 labelled with fluorescein-maleimide or biotin-PEG2-maleimide, or unlabelled, depending on assay, non-covalent head-to-tail homodimer
notes: Recombinant, TEV-cleaved
